B1: Twister Ribozyme (parent)
chain: AACACUGCCAAUGCCGGUCCCAAGCCCGGAUAAAAGUGGAGGGGGCGG

Variants of: B1
Assay: self-cleavage, relative activity (ratio to wild type); higher = more cleavage; co-transcriptional

| Variant | self-cleavage |
| --- | --- |
| AACACUGCCAAUGCCGGUCCCAAGCCCGGAUGAAAGUGGAGGGUGCGG | 1.06 |
| AACACUGCCAAUGCCGGUCCCAAGCCCGGAUUAAAGUGGAGGGCGCGG | 0.934 |
| AACACUGCCAAUGCCGGUCCCAAGCCCGGAUACUAGUGGAGGGGGCGG | 0.969 |
| AACACUGCCAAUGCCGGUCCCAAGCCCGGAUACAAGUGGUGGGGGCGG | 0.1 |
| AACACUGCCAAUGCCGGUCCCAAGCCCGGAUACAAGUGGGGGGGGCGG | 0.182 |
| AACACUGCCAAUGCCGGUCCCAAGCCCGGAUACAAGUGGCGGGGGCGG | 0.131 |
| AACACUGCCAAUGCCGGUCCCAAGCCCGGAUUAAAGUGGAGGGGGCGU | 0.977 |
| AACACUGCCAAUGCCGGUCCCAAGCCCGGAUUAAAGUGGAGGGGGCGC | 1.2 |
| AACACUGCCAAUGCCGGUCCCAAGCCCGGAUUAAAGUGGAGGGGGCUG | 0.83 |
| AACACUGCCAAUGCCGGUCCCAAGCCCGGAUUAAAGUGGAGGGGGCAG | 0.883 |
| AACACUGCCAAUGCCGGUCCCAAGCCCGGAUUAAAGUGGAGGGGGCCG | 0.583 |
| AACACUGCCAAUGCCGGUCCCAAGCCCGGAUGAAAGUGGAGGGGCCGG | 0.559 |
| AACACUGCCAAUGCCGGUCCCAAGCCCGGAUACAAGUGGAGUGGGCGG | 0.188 |
| AACACUGCCAAUGCCGGUCCCAAGCCCGGAUACAAGUGGAGAGGGCGG | 0.177 |
| AACACUGCCAAUGCCGGUCCCAAGCCCGGAUACAAGUGGAGCGGGCGG | 0.19 |
| AACACUGCCAAUGCCGGUCCCAAGCCCGGAUUAAAGUGAAGGGGGCGG | 0.596 |
| AACACUGCCAAUGCCGGUCCCAAGCCCGGAUUAAAGUGCAGGGGGCGG | 0.144 |
| AACACUGCCAAUGCCGGUCCCAAGCCCGGAUUAAAGUGUAGGGGGCGG | 0.158 |
| AACACUGCCAAUGCCGGUCCCAAGCCCGGAUGAAAGUGGAGGGGGCGU | 1.1 |
| AACACUGCCAAUGCCGGUCCCAAGCCCGGAUGAAAGUGGAGGGGGCGA | 0.925 |
| AACACUGCCAAUGCCGGUCCCAAGCCCGGAUGAAAGUGGAGGGGGCGC | 0.976 |
| AACACUGCCAAUGCCGGUCCCAAGCCCGGAUCAAAGUGGGGGGGGCGG | 0.134 |

| Variant | self-cleavage |
| --- | --- |
| AACACUGCCAAUGCCGGUCCCAAGCCCGGAUCAAAGUGGUGGGGGCGG | 0.123 |
| AACACUGCCAAUGCCGGUCCCAAGCCCGGAUCAAAGUGGAGGGGGCGU | 0.893 |
| AACACUGCCAAUGCCGGUCCCAAGCCCGGAUCAAAGUGGAGGGGGCGA | 0.929 |
| AACACUGCCAAUGCCGGUCCCAAGCCCGGAUCAAAGUGGAGGGGGCGC | 1.12 |
| AACACUGCCAAUGCCGGUCCCAAGCCCGGAUUAAUGUGGAGGGGGCGG | 1.13 |
| AACACUGCCAAUGCCGGUCCCAAGCCCGGAUCCAAGUGGAGGGGGCGG | 0.767 |
| AACACUGCCAAUGCCGGUCCCAAGCCCGGAUCUAAGUGGAGGGGGCGG | 0.865 |
| AACACUGCCAAUGCCGGUCCCAAGCCCGGAUUAAAGUGGAGGUGGCGG | 0.384 |
| AACACUGCCAAUGCCGGUCCCAAGCCCGGAUUAAAGUGGAGGAGGCGG | 0.239 |
| AACACUGCCAAUGCCGGUCCCAAGCCCGGAUGAAUGUGGAGGGGGCGG | 0.986 |
| AACACUGCCAAUGCCGGUCCCAAGCCCGGAUGAAGGUGGAGGGGGCGG | 0.718 |
| AACACUGCCAAUGCCGGUCCCAAGCCCGGAUCAAAGUGGAGCGGGCGG | 0.326 |
| AACACUGCCAAUGCCGGUCCCAAGCCCGGAUCAAAGUGGAGAGGGCGG | 0.289 |
| AACACUGCCAAUGCCGGUCCCAAGCCCGGAUCAAAGGGGAGGGGGCGG | 0.625 |
| AACACUGCCAAUGCCGGUCCCAAGCCCGGAUUAAAGUGGAUGGGGCGG | 0.659 |
| AACACUGCCAAUGCCGGUCCCAAGCCCGGAUUAAAGUGGACGGGGCGG | 0.284 |
| AACACUGCCAAUGCCGGUCCCAAGCCCGGAUGAAAGUGGCGGGGGCGG | 0.226 |
| AACACUGCCAAUGCCGGUCCCAAGCCCGGAUGAAAGUGGUGGGGGCGG | 0.117 |
| AACACUGCCAAUGCCGGUCCCAAGCCCGGAUUAUAGUGGAGGGGGCGG | 0.89 |
| AACACUGCCAAUGCCGGUCCCAAGCCCGGAUUAGAGUGGAGGGGGCGG | 0.869 |
| AACACUGCCAAUGCCGGUCCCAAGCCCGGAUUAAAAUGGAGGGGGCGG | 0.701 |
| AACACUGCCAAUGCCGGUCCCAAGCCCGGAUGCAAGUGGAGGGGGCGG | 0.833 |

| Variant | self-cleavage |
| --- | --- |
| AACACUGCCAAUGCCGGUCCCAAGCCCGGAUGUAAGUGGAGGGGGCGG | 0.914 |
| AACACUGCCAAUGCCGGUCCCAAGCCCGGAUGAAAGUGGAGGGGGCUG | 0.893 |
| AACACUGCCAAUGCCGGUCCCAAGCCCGGAUGAAAGUGGAGGGGGCAG | 0.924 |
| AACACUGCCAAUGCCGGUCCCAAGCCCGGAUACAAGUGCAGGGGGCGG | 0.12 |
| AACACUGCCAAUGCCGGUCCCAAGCCCGGAUACAAGUGUAGGGGGCGG | 0.21 |
| AACACUGCCAAUGCCGGUCCCAAGCCCGGAUUAAAGUGGAGGGGGAGG | 0.873 |
| AACACUGCCAAUGCCGGUCCCAAGCCCGGAUUAAAGUGGAGGGGGGGG | 0.973 |
| AACACUGCCAAUGCCGGUCCCAAGCCCGGAUGAAAGGGGAGGGGGCGG | 0.716 |
| AACACUGCCAAUGCCGGUCCCAAGCCCGGAUGAAAGUGAAGGGGGCGG | 0.48 |
| AACACUGCCAAUGCCGGUCCCAAGCCCGGAUGAAAGUGUAGGGGGCGG | 0.158 |
| AACACUGCCAAUGCCGGUCCCAAGCCCGGAUGAAAGUGCAGGGGGCGG | 0.155 |
| AACACUGCCAAUGCCGGUCCCAAGCCCGGAUCAAAGUGGAGGGGGUGG | 0.863 |
| AACACUGCCAAUGCCGGUCCCAAGCCCGGAUUAAAGUGGAGUGGGCGG | 0.298 |
| AACACUGCCAAUGCCGGUCCCAAGCCCGGAUCAAAGUGGAAGGGGCGG | 0.556 |
| AACACUGCCAAUGCCGGUCCCAAGCCCGGAUCAAAGUGGACGGGGCGG | 0.326 |
| AACACUGCCAAUGCCGGUCCCAAGCCCGGAUCAAAGUGGAUGGGGCGG | 0.603 |
| AACACUGCCAAUGCCGGUCCCAAGCCCGGAUACAAGUGGAGGGCGCGG | 0.852 |
| AACACUGCCAAUGCCGGUCCCAAGCCCGGAUACAAGUGGAGGGAGCGG | 0.832 |
| AACACUGCCAAUGCCGGUCCCAAGCCCGGAUACAAAUGGAGGGGGCGG | 0.175 |
| AACACUGCCAAUGCCGGUCCCAAGCCCGGAUACAAGCGGAGGGGGCGG | 0.354 |
| AACACUGCCAAUGCCGGUCCCAAGCCCGGAUACAAGGGGAGGGGGCGG | 0.626 |
| AACACUGCCAAUGCCGGUCCCAAGCCCGGAUCAGAGUGGAGGGGGCGG | 0.761 |

| Variant | self-cleavage |
| --- | --- |
| AACACUGCCAAUGCCGGUCCCAAGCCCGGAUCAUAGUGGAGGGGGCGG | 0.786 |
| AACACUGCCAAUGCCGGUCCCAAGCCCGGAUACAAGUGGAGGGGGCGA | 0.867 |
| AACACUGCCAAUGCCGGUCCCAAGCCCGGAUACAAGUGGAGGGGGCGC | 1.1 |
| AACACUGCCAAUGCCGGUCCCAAGCCCGGAUGAAAGUGGAGGUGGCGG | 0.439 |
| AACACUGCCAAUGCCGGUCCCAAGCCCGGAUGAAAGUGGAGGAGGCGG | 0.284 |
| AACACUGCCAAUGCCGGUCCCAAGCCCGGAUCAAAGUGGAGGUGGCGG | 0.344 |
| AACACUGCCAAUGCCGGUCCCAAGCCCGGAUCAAGGUGGAGGGGGCGG | 0.8 |
| AACACUGCCAAUGCCGGUCCCAAGCCCGGAUACAAGUGGAGGGGGCUG | 0.865 |
| AACACUGCCAAUGCCGGUCCCAAGCCCGGAUACAAGUGGAGGGGGCAG | 0.782 |
| AACACUGCCAAUGCCGGUCCCAAGCCCGGAUGAGAGUGGAGGGGGCGG | 0.679 |
| AACACUGCCAAUGCCGGUCCCAAGCCCGGAUGAUAGUGGAGGGGGCGG | 0.85 |
| AACACUGCCAAUGCCGGUCCCAAGCCCGGAUGAAAGUGGAGGGGGCGG | 0.961 |
| AACACUGCCAAUGCCGGUCCCAAGCCCGGAUCAAAGUGGAGGGGGCGG | 0.967 |
| AACACUGCCAAUGCCGGUCCCAAGCCCGGAUUAAAGUGGAGGGGGCGG | 0.975 |
| AACACUGCCAAUGCCGGUCCCAAGCCCGGAUCAAAGUGGAGGGGUCGG | 0.758 |
| AACACUGCCAAUGCCGGUCCCAAGCCCGGAUCAAAGUGGAGGGGCCGG | 0.546 |
| AACACUGCCAAUGCCGGUCCCAAGCCCGGAUCAAAGUGGAGGGGACGG | 0.95 |
| AACACUGCCAAUGCCGGUCCCAAGCCCGGAUGAAAGUUGAGGGGGCGG | 0.846 |
| AACACUGCCAAUGCCGGUCCCAAGCCCGGAUCAAAUUGGAGGGGGCGG | 0.184 |
| AACACUGCCAAUGCCGGUCCCAAGCCCGGAUUGAAGUGGAGGGGGCGG | 0.891 |
| AACACUGCCAAUGCCGGUCCCAAGCCCGGAUUAAAGUGGCGGGGGCGG | 0.204 |
| AACACUGCCAAUGCCGGUCCCAAGCCCGGAUUAAAGUGGGGGGGGCGG | 0.108 |

| Variant | self-cleavage |
| --- | --- |
| AACACUGCCAAUGCCGGUCCCAAGCCCGGAUACAGGUGGAGGGGGCGG | 0.707 |
| AACACUGCCAAUGCCGGUCCCAAGCCCGGAUACACGUGGAGGGGGCGG | 0.522 |
| AACACUGCCAAUGCCGGUCCCAAGCCCGGAUACAUGUGGAGGGGGCGG | 0.936 |
| AACACUGCCAAUGCCGGUCCCAAGCCCGGAUUAAAGCGGAGGGGGCGG | 0.669 |
| AACACUGCCAAUGCCGGUCCCAAGCCCGGAUUAAAGAGGAGGGGGCGG | 0.74 |
| AACACUGCCAAUGCCGGUCCCAAGCCCGGAUUAAAGGGGAGGGGGCGG | 0.737 |
| AACACUGCCAAUGCCGGUCCCAAGCCCGGAUCAAAGUCGAGGGGGCGG | 0.89 |
| AACACUGCCAAUGCCGGUCCCAAGCCCGGAUCAAAGUAGAGGGGGCGG | 1.03 |
| AACACUGCCAAUGCCGGUCCCAAGCCCGGAUUAAAGUGGAGGGGUCGG | 0.819 |
| AACACUGCCAAUGCCGGUCCCAAGCCCGGAUACAAGUGGAUGGGGCGG | 0.265 |
| AACACUGCCAAUGCCGGUCCCAAGCCCGGAUACAAGUUGAGGGGGCGG | 0.72 |
| AACACUGCCAAUGCCGGUCCCAAGCCCGGAUACAAGUAGAGGGGGCGG | 0.867 |
| AACACUGCCAAUGCCGGUCCCAAGCCCGGAUGAAAUUGGAGGGGGCGG | 0.244 |
| AACACUGCCAAUGCCGGUCCCAAGCCCGGAUGAAACUGGAGGGGGCGG | 0.403 |
| AACACUGCCAAUGCCGGUCCCAAGCCCGGAUUAAAGUCGAGGGGGCGG | 1.12 |
| AACACUGCCAAUGCCGGUCCCAAGCCCGGAUACAAGUGGAGGGGCCGG | 0.531 |
| AACACUGCCAAUGCCGGUCCCAAGCCCGGAUACAAGUGGAGGGGUCGG | 0.71 |
| AACACUGCCAAUGCCGGUCCCAAGCCCGGAUACAAGUGGAGGGGACGG | 0.795 |
| AACACUGCCAAUGCCGGUCCCAAGCCCGGAUACAAGUGGAGGUGGCGG | 0.297 |
| AACACUGCCAAUGCCGGUCCCAAGCCCGGAUACAAGUGGAGGCGGCGG | 0.107 |

From the RNAGym collection of RNA variant scans (doi:10.7554/elife.80360)
